This note sets out measurements from patent publication US11098105 (Zymeworks, dated 2021).

For one experiment, the target named is T1, FcγRIIb (UniProt P31994 46-217).
T1 construct: also called 2b; CD32b
T1 sequence (looked up): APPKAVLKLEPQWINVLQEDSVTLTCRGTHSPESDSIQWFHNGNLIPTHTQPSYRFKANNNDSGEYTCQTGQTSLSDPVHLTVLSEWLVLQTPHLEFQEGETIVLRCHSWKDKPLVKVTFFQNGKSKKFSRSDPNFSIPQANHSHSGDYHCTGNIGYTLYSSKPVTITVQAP
Description: SPR, antibody captured by goat anti-IgG, FcγR injected.

A further experiment deals with T2, FcγRIIaH (UniProt P12318 36-218).
T2 construct: also called 2aH; 2ah
T2 sequence (looked up): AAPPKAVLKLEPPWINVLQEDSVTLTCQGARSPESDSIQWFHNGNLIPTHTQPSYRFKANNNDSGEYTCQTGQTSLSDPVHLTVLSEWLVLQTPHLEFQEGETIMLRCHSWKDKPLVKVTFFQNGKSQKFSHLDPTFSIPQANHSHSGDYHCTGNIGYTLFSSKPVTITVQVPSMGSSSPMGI
Described as above.

In the next experiment the target is T3, FcγRIIIaF (UniProt P08637 17-208).
T3 construct: also called 3aF; 3af
Described as above.

The target in a further experiment is T4, FcγRIIaR (UniProt P12318 36-218).
T4 construct: also called 2aR; 2ar
T4 sequence (looked up): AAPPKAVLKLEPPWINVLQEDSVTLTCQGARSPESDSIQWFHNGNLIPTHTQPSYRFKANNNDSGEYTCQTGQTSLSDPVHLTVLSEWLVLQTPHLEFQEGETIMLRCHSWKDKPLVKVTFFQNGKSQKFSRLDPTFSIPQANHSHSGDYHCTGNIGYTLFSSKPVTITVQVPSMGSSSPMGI
The experiment is described as above.

The target in a further experiment is Human C1q (human, UniProt P02745 23-245; P02746 28-253; P02747 29-245). Description: cell-based or functional assay.
The target in experiment [1] is CD16a(158V/V) on NK92 effector cells (UniProt P08637 17-254, limits assumed). Description: cell-based or functional assay.

Human C1q, sequence (P02745 23-245 limits assumed, chain 1 of 3): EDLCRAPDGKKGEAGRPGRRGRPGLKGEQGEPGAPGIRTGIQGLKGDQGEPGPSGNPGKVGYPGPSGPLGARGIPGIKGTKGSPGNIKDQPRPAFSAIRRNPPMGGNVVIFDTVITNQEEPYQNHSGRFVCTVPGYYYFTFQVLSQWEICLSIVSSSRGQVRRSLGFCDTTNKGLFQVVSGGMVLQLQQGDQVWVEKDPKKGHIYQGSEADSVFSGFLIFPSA
Human C1q, sequence (P02746 28-253 limits assumed, chain 2 of 3): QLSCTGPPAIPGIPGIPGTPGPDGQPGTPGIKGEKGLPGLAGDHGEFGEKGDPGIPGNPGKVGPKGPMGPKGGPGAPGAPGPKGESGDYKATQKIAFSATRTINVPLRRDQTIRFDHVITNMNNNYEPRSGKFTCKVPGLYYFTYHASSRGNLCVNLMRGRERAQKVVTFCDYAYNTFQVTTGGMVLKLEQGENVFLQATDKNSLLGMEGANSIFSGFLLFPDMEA
Human C1q, sequence (P02747 29-245 limits assumed, chain 3 of 3): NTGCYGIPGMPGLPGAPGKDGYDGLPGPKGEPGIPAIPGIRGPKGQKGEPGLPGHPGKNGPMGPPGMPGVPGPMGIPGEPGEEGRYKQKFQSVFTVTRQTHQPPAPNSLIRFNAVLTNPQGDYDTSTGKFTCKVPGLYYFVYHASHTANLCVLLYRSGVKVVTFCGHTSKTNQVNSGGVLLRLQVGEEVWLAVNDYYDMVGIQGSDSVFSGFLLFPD

B1: AAC10, rituximab-based asymmetric antibody construct (antibody, human IgG1, kappa)
heavy 1: QVQLQQPGAELVKPGASVKMSCKASGYTFTSYNMHWVKQTPGRGLEWIGAIYPGNGDTSYNQKFKGKATLTADKSSSTAYMQLSSLTSEDSAVYYCARSTYYGGDWYFNVWGAGTTVTVSAASTKGPSVFPLAPSSKSTSGGTAALGCLVKDYFPEPVTVSWNSGALTSGVHTFPAVLQSSGLYSLSSVVTVPSSSLGTQTYICNVNHKPSNTKVDKKVEPKSCDKTHTCPPCPAPEDEGGPSVFLFPPKPKDTLMISRTPEVTCVVVSVSHEDPEVKFNWYVDGVEVHNAKTKPREEQYNSTYRVVSVLTVLHQDWLNGKEYKCKVSNKALPAPIEKTISKAKGQPREPQVYVYPPSRDELTKNQVSLTCLVKGFYPSDIAVEWESNGQPENNYKTTPPVLDSDGSFALVSKLTVDKSRWQQGNVFSCSVMHEALHNHYTQKSLSLSPGK
heavy 2: QVQLQQPGAELVKPGASVKMSCKASGYTFTSYNMHWVKQTPGRGLEWIGAIYPGNGDTSYNQKFKGKATLTADKSSSTAYMQLSSLTSEDSAVYYCARSTYYGGDWYFNVWGAGTTVTVSAASTKGPSVFPLAPSSKSTSGGTAALGCLVKDYFPEPVTVSWNSGALTSGVHTFPAVLQSSGLYSLSSVVTVPSSSLGTQTYICNVNHKPSNTKVDKKVEPKSCDKTHTCPPCPAPKRRGGPSVFLFPPKPKDTLMISRTPEVTCVVVSVSHEDPEVKFNWYVDGVEVHNAKTKPREEQYNSTYRVVSVLTVLHQDWLNGKEYKCKVSNKALPAPIEKTISKAKGQPREPQVYVLPPSRDELTKNQVSLLCLVKGFYPSDIAVEWESNGQPENNYLTWPPVLDSDGSFFLYSKLTVDKSRWQQGNVFSCSVMHEALHNHYTQKSLSLSPGK
light: QIVLSQSPAILSASPGEKVTMTCRASSSVSYIHWFQQKPGSSPKPWIYATSNLASGVPVRFSGSGSGTSYSLTISRVEAEDAATYYCQQWTSNPPTFGGGTKLEIKRTVAAPSVFIFPPSDEQLKSGTASVVCLLNNFYPREAKVQWKVDNALQSGNSQESVTEQDSKDSTYSLSSTLTLSKADYEKHKVYACEVTHQGLSSPVTKSFNRGEC
As for B1, the binding result with FcγRIIb, with FcγRIIaH, in the experiment with FcγRIIIaF and with FcγRIIaR was “no binding” throughout. Moreover, the “CDC EC50 [nM], Daudi cells, 10% normal human serum” value (“CDC EC50 … 10% normal human serum” below) with Human C1q came to 82.8 nM. Moreover, the “CDC Maximum Lysis, Daudi cells, 10% normal human serum” value with Human C1q stood at 79 % cell lysis. For the same molecule, the “ADCC EC50 [nM], Daudi cells, NK92/CD16a(158V/V) effector cells” value in experiment [1] worked out at 7.4 nM. In experiment [1], the “ADCC Maximum Lysis, Daudi cells, NK92/CD16a(158V/V) effector cells” value was determined as 45 % cell lysis.

B2: AAC15, rituximab-based asymmetric antibody construct (antibody, human IgG1, kappa)
heavy 1: QVQLQQPGAELVKPGASVKMSCKASGYTFTSYNMHWVKQTPGRGLEWIGAIYPGNGDTSYNQKFKGKATLTADKSSSTAYMQLSSLTSEDSAVYYCARSTYYGGDWYFNVWGAGTTVTVSAASTKGPSVFPLAPSSKSTSGGTAALGCLVKDYFPEPVTVSWNSGALTSGVHTFPAVLQSSGLYSLSSVVTVPSSSLGTQTYICNVNHKPSNTKVDKKVEPKSCDKTHTCPPCPAPEDEGGPSVFLFPPKPKDTLMISRTPEVTCVVVSVSHKDPEVKFNWYVDGVEVHNAKTKPREEQYNSTYRVVSVLTVLHQDWLNGKEYKCEVSNKALPAPIKKTISKAKGQPREPQVYVYPPSRDELTKNQVSLTCLVKGFYPSDIAVEWESNGQPENNYKTTPPVLDSDGSFALVSKLTVDKSRWQQGNVFSCSVMHEALHNHYTQKSLSLSPGK
heavy 2: QVQLQQPGAELVKPGASVKMSCKASGYTFTSYNMHWVKQTPGRGLEWIGAIYPGNGDTSYNQKFKGKATLTADKSSSTAYMQLSSLTSEDSAVYYCARSTYYGGDWYFNVWGAGTTVTVSAASTKGPSVFPLAPSSKSTSGGTAALGCLVKDYFPEPVTVSWNSGALTSGVHTFPAVLQSSGLYSLSSVVTVPSSSLGTQTYICNVNHKPSNTKVDKKVEPKSCDKTHTCPPCPAPKRRGGPSVFLFPPKPKDTLMISRTPEVTCVVVSVSHKDPEVKFNWYVDGVEVHNAKTKPREEQYNSTYRVVSVLTVLHQDWLNGKEYKCEVSNKALPAPIKKTISKAKGQPREPQVYVLPPSRDELTKNQVSLLCLVKGFYPSDIAVEWESNGQPENNYLTWPPVLDSDGSFFLYSKLTVDKSRWQQGNVFSCSVMHEALHNHYTQKSLSLSPGK
light: QIVLSQSPAILSASPGEKVTMTCRASSSVSYIHWFQQKPGSSPKPWIYATSNLASGVPVRFSGSGSGTSYSLTISRVEAEDAATYYCQQWTSNPPTFGGGTKLEIKRTVAAPSVFIFPPSDEQLKSGTASVVCLLNNFYPREAKVQWKVDNALQSGNSQESVTEQDSKDSTYSLSSTLTLSKADYEKHKVYACEVTHQGLSSPVTKSFNRGEC
With B2, the binding result with FcγRIIb, with FcγRIIaH, in the experiment with FcγRIIIaF and with FcγRIIaR was “no binding” in each case. Besides, the “CDC EC50 … 10% normal human serum” value in the experiment with Human C1q is ~55.9 nM. The “CDC Maximum Lysis, Daudi cells, 10% normal human serum” value with Human C1q was 43 % cell lysis.

B3: AAC14, rituximab-based asymmetric antibody construct (antibody, human IgG1, kappa)
heavy 1: QVQLQQPGAELVKPGASVKMSCKASGYTFTSYNMHWVKQTPGRGLEWIGAIYPGNGDTSYNQKFKGKATLTADKSSSTAYMQLSSLTSEDSAVYYCARSTYYGGDWYFNVWGAGTTVTVSAASTKGPSVFPLAPSSKSTSGGTAALGCLVKDYFPEPVTVSWNSGALTSGVHTFPAVLQSSGLYSLSSVVTVPSSSLGTQTYICNVNHKPSNTKVDKKVEPKSCDKTHTCPPCPAPEDEGGPSVFLFPPKPKDTLMISRTPEVTCVVVSVSHKDPEVKFNWYVDGVEVHNAKTKPREEQYNSTYRVVSVLTVLHQDWLNGKEYKCAVSNKALPAPIEKTISKAKGQPREPQVYVYPPSRDELTKNQVSLTCLVKGFYPSDIAVEWESNGQPENNYKTTPPVLDSDGSFALVSKLTVDKSRWQQGNVFSCSVMHEALHNHYTQKSLSLSPGK
heavy 2: QVQLQQPGAELVKPGASVKMSCKASGYTFTSYNMHWVKQTPGRGLEWIGAIYPGNGDTSYNQKFKGKATLTADKSSSTAYMQLSSLTSEDSAVYYCARSTYYGGDWYFNVWGAGTTVTVSAASTKGPSVFPLAPSSKSTSGGTAALGCLVKDYFPEPVTVSWNSGALTSGVHTFPAVLQSSGLYSLSSVVTVPSSSLGTQTYICNVNHKPSNTKVDKKVEPKSCDKTHTCPPCPAPKRRGGPSVFLFPPKPKDTLMISRTPEVTCVVVSVSHKDPEVKFNWYVDGVEVHNAKTKPREEQYNSTYRVVSVLTVLHQDWLNGKEYKCAVSNKALPAPIEKTISKAKGQPREPQVYVLPPSRDELTKNQVSLLCLVKGFYPSDIAVEWESNGQPENNYLTWPPVLDSDGSFFLYSKLTVDKSRWQQGNVFSCSVMHEALHNHYTQKSLSLSPGK
light: QIVLSQSPAILSASPGEKVTMTCRASSSVSYIHWFQQKPGSSPKPWIYATSNLASGVPVRFSGSGSGTSYSLTISRVEAEDAATYYCQQWTSNPPTFGGGTKLEIKRTVAAPSVFIFPPSDEQLKSGTASVVCLLNNFYPREAKVQWKVDNALQSGNSQESVTEQDSKDSTYSLSSTLTLSKADYEKHKVYACEVTHQGLSSPVTKSFNRGEC
B3: the binding result with FcγRIIb, with FcγRIIaH, with FcγRIIIaF and with FcγRIIaR was “no binding” throughout. Also, in the experiment with Human C1q, the “CDC EC50 … 10% normal human serum” value came to 69.7 nM. In addition, in the experiment with Human C1q, the “CDC Maximum Lysis, Daudi cells, 10% normal human serum” value turned out to be 72 % cell lysis.

B4: AAC13, rituximab-based asymmetric antibody construct (antibody, human IgG1, kappa)
heavy 1: QVQLQQPGAELVKPGASVKMSCKASGYTFTSYNMHWVKQTPGRGLEWIGAIYPGNGDTSYNQKFKGKATLTADKSSSTAYMQLSSLTSEDSAVYYCARSTYYGGDWYFNVWGAGTTVTVSAASTKGPSVFPLAPSSKSTSGGTAALGCLVKDYFPEPVTVSWNSGALTSGVHTFPAVLQSSGLYSLSSVVTVPSSSLGTQTYICNVNHKPSNTKVDKKVEPKSCDKTHTCPPCPAPEDEGGPSVFLFPPKPKDTLMISRTPEVTCVVVDVSHEDPEVKFNWYVDGVEVHNAKTKPREEQYNSTYRVVSVLTVLHQDWLNGKEYKCKVSNKALWAPIEKTISKAKGQPREPQVYVYPPSRDELTKNQVSLTCLVKGFYPSDIAVEWESNGQPENNYKTTPPVLDSDGSFALVSKLTVDKSRWQQGNVFSCSVMHEALHNHYTQKSLSLSPGK
heavy 2: QVQLQQPGAELVKPGASVKMSCKASGYTFTSYNMHWVKQTPGRGLEWIGAIYPGNGDTSYNQKFKGKATLTADKSSSTAYMQLSSLTSEDSAVYYCARSTYYGGDWYFNVWGAGTTVTVSAASTKGPSVFPLAPSSKSTSGGTAALGCLVKDYFPEPVTVSWNSGALTSGVHTFPAVLQSSGLYSLSSVVTVPSSSLGTQTYICNVNHKPSNTKVDKKVEPKSCDKTHTCPPCPAPKRRGGPSVFLFPPKPKDTLMISRTPEVTCVVVDVSHEDPEVKFNWYVDGVEVHNAKTKPREEQYNSTYRVVSVLTVLHQDWLNGKEYKCKVSNKALWAPIEKTISKAKGQPREPQVYVLPPSRDELTKNQVSLLCLVKGFYPSDIAVEWESNGQPENNYLTWPPVLDSDGSFFLYSKLTVDKSRWQQGNVFSCSVMHEALHNHYTQKSLSLSPGK
light: QIVLSQSPAILSASPGEKVTMTCRASSSVSYIHWFQQKPGSSPKPWIYATSNLASGVPVRFSGSGSGTSYSLTISRVEAEDAATYYCQQWTSNPPTFGGGTKLEIKRTVAAPSVFIFPPSDEQLKSGTASVVCLLNNFYPREAKVQWKVDNALQSGNSQESVTEQDSKDSTYSLSSTLTLSKADYEKHKVYACEVTHQGLSSPVTKSFNRGEC
Turning to B4, the binding result with FcγRIIb, with FcγRIIaH, with FcγRIIIaF and in the experiment with FcγRIIaR was “no binding” in each case.
